One experiment deals with C1q (human) (UniProt P02745). Nature of the experiment: cell-based or functional assay.
For a further experiment, the target named is T1, calreticulin (UniProt P27797 18-417, limits assumed).
T1 construct: also called CRT; recombinant calreticulin
T1 sequence (looked up): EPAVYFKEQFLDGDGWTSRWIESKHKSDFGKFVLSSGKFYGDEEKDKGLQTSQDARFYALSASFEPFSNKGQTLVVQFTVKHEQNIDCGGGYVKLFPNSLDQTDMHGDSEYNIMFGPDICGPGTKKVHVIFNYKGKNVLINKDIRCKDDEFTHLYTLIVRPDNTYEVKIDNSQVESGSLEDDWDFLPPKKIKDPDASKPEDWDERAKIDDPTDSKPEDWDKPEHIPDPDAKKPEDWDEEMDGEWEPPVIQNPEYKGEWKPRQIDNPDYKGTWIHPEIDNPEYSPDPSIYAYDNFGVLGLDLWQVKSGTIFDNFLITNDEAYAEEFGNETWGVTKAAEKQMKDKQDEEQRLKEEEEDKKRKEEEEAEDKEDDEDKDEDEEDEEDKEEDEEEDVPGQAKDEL
Description: plates coated with C1q, calreticulin and BSA, PA peptide added (FIG. 14A).

A further experiment has as its target T2, BSA (UniProt P02769 25-607).
T2 construct: Negative control
The description is as above.

Ends that are not written are not given here.

Chain of C1q (human) (P02745 23-245, chain 1 of 3): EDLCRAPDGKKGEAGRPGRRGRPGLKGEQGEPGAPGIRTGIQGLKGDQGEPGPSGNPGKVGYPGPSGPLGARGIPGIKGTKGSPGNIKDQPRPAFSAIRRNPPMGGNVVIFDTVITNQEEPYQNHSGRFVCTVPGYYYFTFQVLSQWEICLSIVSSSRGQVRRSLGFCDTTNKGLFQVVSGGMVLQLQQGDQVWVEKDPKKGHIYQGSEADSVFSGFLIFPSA
Chain of C1q (human) (P02746 28-253, chain 2 of 3, further chain): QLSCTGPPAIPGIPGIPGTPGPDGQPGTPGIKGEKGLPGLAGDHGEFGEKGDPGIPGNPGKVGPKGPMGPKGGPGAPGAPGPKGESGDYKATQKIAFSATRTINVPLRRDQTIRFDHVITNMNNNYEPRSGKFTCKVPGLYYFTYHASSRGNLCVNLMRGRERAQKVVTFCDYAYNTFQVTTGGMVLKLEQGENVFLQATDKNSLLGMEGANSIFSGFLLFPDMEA
Chain of C1q (human) (P02747 29-245, chain 3 of 3, further chain): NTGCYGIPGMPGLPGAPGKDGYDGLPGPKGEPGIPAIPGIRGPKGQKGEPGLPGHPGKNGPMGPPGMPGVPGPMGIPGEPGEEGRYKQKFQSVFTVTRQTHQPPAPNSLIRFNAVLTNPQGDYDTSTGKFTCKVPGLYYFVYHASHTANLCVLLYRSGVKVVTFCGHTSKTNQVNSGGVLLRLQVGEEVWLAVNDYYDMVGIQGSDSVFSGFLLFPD
T2 sequence (P02769 25-607 limits assumed): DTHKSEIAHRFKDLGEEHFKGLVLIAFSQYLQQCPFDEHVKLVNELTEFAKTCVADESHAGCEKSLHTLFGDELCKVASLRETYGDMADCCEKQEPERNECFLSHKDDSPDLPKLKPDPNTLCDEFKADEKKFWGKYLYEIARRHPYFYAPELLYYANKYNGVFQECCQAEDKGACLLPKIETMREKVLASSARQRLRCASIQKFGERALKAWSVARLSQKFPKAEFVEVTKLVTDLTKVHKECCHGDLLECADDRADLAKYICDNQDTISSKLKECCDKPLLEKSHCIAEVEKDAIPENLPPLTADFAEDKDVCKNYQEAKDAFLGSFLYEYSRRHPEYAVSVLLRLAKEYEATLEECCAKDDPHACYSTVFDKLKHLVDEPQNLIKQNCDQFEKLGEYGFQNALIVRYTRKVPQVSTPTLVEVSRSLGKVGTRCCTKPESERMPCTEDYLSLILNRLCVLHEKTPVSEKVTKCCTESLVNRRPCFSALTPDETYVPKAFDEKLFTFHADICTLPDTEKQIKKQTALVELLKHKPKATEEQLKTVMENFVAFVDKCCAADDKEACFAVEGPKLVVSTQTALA

B1: PA-dPEG08 (peptide)
peptide: IALILEPICCQERAA-dPEG08
modifications: cysteine pairing not given here
As to B1, in the experiment with C1q (human), the Hemolysis (%), sensitized sheep RBCs, factor B-depleted human serum, peptide 0.77 mM was 34.7%.

B2: PA-dPEG24 (peptide)
peptide: IALILEPICCQERAA-dPEG24
modifications: cysteine pairing not given here
On to B2, for which, in the experiment with C1q (human), the Hemolysis (%), sensitized sheep RBCs, factor B-depleted human serum, peptide 0.77 mM stood at 2.99%; the Hemolysis in presence of PA-dPEG24 (Abs 412 nm), plasma of Donor O+ #1 with B+ erythrocytes (0.747 without peptide) was 0.008 Abs 412 nm; the inhibition of hemolysis of B erythrocytes by type-O plasma, dose-response (FIG. 8) is above 95%.

B3: PA-dPEG03 (peptide)
peptide: IALILEPICCQERAA-dPEG03
modifications: cysteine pairing not given here
Turning to B3, in the experiment with C1q (human), the Hemolysis (%), sensitized sheep RBCs, factor B-depleted human serum, peptide 0.77 mM was 12.6%.

B4: PA-dPEG16 (peptide)
peptide: IALILEPICCQERAA-dPEG16
modifications: cysteine pairing not given here
For the molecule B4, the Hemolysis (%), sensitized sheep RBCs, factor B-depleted human serum, peptide 0.77 mM with C1q (human) came out at 12%.

B5: PA-dPEG02 (peptide)
peptide: IALILEPICCQERAA-dPEG02
modifications: cysteine pairing not given here
With B5, the Hemolysis (%), sensitized sheep RBCs, factor B-depleted human serum, peptide 0.77 mM in the experiment with C1q (human) stood at 11.6%.

B6: Polar Assortant peptide (peptide)
peptide: IALILEPICCQERAA
notes: also called PA; PIC1
Regarding B6, the binding result with calreticulin and with BSA was “no binding” throughout.

B7: PA-dPEG20 (peptide)
peptide: IALILEPICCQERAA-dPEG20
modifications: cysteine pairing not given here
Turning to B7, the Hemolysis (%), sensitized sheep RBCs, factor B-depleted human serum, peptide 0.77 mM with C1q (human) came out at 11.4%.

B8: PA-dPEG04 (peptide)
peptide: IALILEPICCQERAA-dPEG04
modifications: cysteine pairing not given here
As for B8, in the experiment with C1q (human), the Hemolysis (%), sensitized sheep RBCs, factor B-depleted human serum, peptide 0.77 mM was 12.4%.

B9: PA-dPEG12 (peptide)
peptide: IALILEPICCQERAA-dPEG12
modifications: cysteine pairing not given here
Regarding B9, the Hemolysis (%), sensitized sheep RBCs, factor B-depleted human serum, peptide 0.77 mM with C1q (human) came out at 11.4%.

B10: PA-dPEG06 (peptide)
peptide: IALILEPICCQERAA-dPEG06
modifications: cysteine pairing not given here
B10: in the experiment with C1q (human), the Hemolysis (%), sensitized sheep RBCs, factor B-depleted human serum, peptide 0.77 mM came out at 44.8%.

The record behind these values is patent US20190010193A1 (REALTA, published 2019).
